# From the DeepSol protein solubility set
# Assay: soluble on expression in E. coli; label from the status in PepcDB or PDB records
row,Sequence,soluble on expression in E. coli
1,MSLKVVKFGGSSLASASQLEKVLNIVKSDSERRFVVVSAPGKRNAEDTKVTDALIKYYRDYVAGNDISKNQSWIIDRYAAMVSELGLKPAVLEKISKSIHALATLPIEENEFLYDTFLAAGENNNAKLIAAYFNQNGIDARYMHPREAGIVVTSEPGHARIIPSSYDKIEELTNTNEVLVIPGFFGVTKENQICTFSRGGSDITGSIIAAGVKADLYENFTDVDGIFAAHPGIIHQPHSIPELTYREMRELAYAGFSVLHDEALLPAYRGKIPLVIKNTNNPDHPGTRIVLKHSNDEFPVVGIAGDSGFVSINMSKYLMNREVGFGRKVLQILEELNIGWEHMPTGIDDLSIILRSRQLTPIKEEEILRQLVQKAKVDHAEIEHDLSIIMIVGEKMKSHIGVTATATRALSENKINIQMMSQGSSEVSIMFVVNKDQEKAAIKALYNAFFGESKEDEGHHHHHH,soluble
2,MGSDKIHHHHHHMTPRPVSSVARLVEDNAQDFLRAVQAKLLTLAPQARGHFPTADDATHISIAEMVSALLEGTGEEGKVDDKTLEFFKEAALDARRFGLTPEMHSALGEAVRSELLSLCEDLPFENVLFAERAIAATTAVSVEAVREADEAHIPASYQAEIVEVEKRSRRFTVVRMQAETQLPYLPGQYLAATADFLPNTWRYLCPSIPTNEWGQVEFHIQSDADDIAGLLATTRLGDKWRLGPGRGDFGQSKISSGNDLLFIAHGTGLAPLRAYMFELMNQAAPPRLHFFVGADYPGELYELTGMWNFAAASPWLSVVPVSTHDKDAWWVQATEASQPPRGLHLHQTGSMAKIVTEAGAWADRDVLIAGPESWARDVRRAMIRRGTPAQQIEILGF,not soluble
3,MPHPCLSCGACCAYFRVSFHWSEADPALGGNVPIELTEPLRIHERVMHGTSQSHPRCIALDAEIGYRSRCTIHERRPSVCAAVPASLEFGTRSQQCDTSRRAHGLHLLTEADWAGVTNTERNPLPNELEHHHHHH,soluble
4,MGSDKIHHHHHHMTSSVASDLSSFVRFADIPPEFQPTDAHPIRVRSRLMPSGRRIARHTHAWAQVAYASRGVLRVATTGTTWMVPPSRAIWVPPHVTHEVVAVEDAFLRTLYITESTVPAGLDTPRVVEVSDLLREVIAALDTPGISATREQLLGALALDELTRSEPLPLSVPMPNEKRLRALCEAVIADPTHGESLEQWASSVGASTRTIARLFRQELGVSFSQWRQQAILARAIPLLSQGRPLSHVALELGYQSQSAFSAMFRRAFGESPRAFIERGSEHRVEDGERGDMETDNETAAQDRADVADVADVADDAGDAGDAGDTGDTGDTGDVGDVGDADDSEL,not soluble
5,MHHHHHHMGLELYLDLLSQPCRAVYIFAKKNDIPFELRIVDLIKGQHLSDAFAQVNPLKKVPALKDGDFTLTESVAILLYLTRKYKVPDYWYPQDLQARARVDEYLAWQHTTLRRSCLRALWHKVMFPVFLGEPVSPQTLAATLAELDVTLQLLEDKFLQNKAFLTGPHISLADLVAITELMHPVGAGCQVFEGRPKLATWRQRVEAAVGEDLFQEAHEVILKAKDFPPADPTIKQKLMPWVLAMIR,soluble
6,MSLAYGSLLFKRFSITIKYRKLIVEHIEKGDLKLTEEFKNILRDLMVTTFKKADSILIEKCKAEEKHYSSCTGVVLLFIKDILVNAHIGDSRSVACTYSNSINLAQFLTIDHKPDQPLEYRRIVENGGSVEYLQNHNNKPFLRGGDFTRRRARGETPMQLQYSRAFGGKDLKPYGLSCVPDISIISLNQNNRLFIIATDGIWDLLSAQQSCDLSFYSQELGIQPARYLVNAVLEETRNRNTNCDNLTAICIMHIKNEGHHHHHH,soluble
7,MILLPSIRLPETAMNTDSPINRVEQVQVDDLACWRIHTAHGEALIAQQGAQLLSYQPHEQPPLVWLSDEAGYRRGQSVRGGVPVCWPWFGPLERNPQEVRGQVEDGLKAPAHGLVRAVDWKIDDIAEEDGDLCVSFRLDAPDGLPGWPHPAALRMLFRFGERLTLRLTSENLGSKPLVLSQALHTYFAVSDSREIAIEGLEGARYIETLENWEERTQHGAVRVKGELDRIYLGLERDLLIKDPRWERSIHLHALDSRSAVVWNPWVDKSRRLSQFADDAWQQMLCIETGRVWDDLMVVAPGRSESFGVQIWSEPLKRP,soluble
8,MGSDKIHHHHHHMMSKYPLLGMTLIELQSLVKRLGMPGFAAKQIASWLYDKKVTSIDEMTNLSLKYRELLKQNYEVGAEAPVEEMRSVDGTVKYLYPVGENHFVESVYIPDDERATLCISSQVGCKMNCKFCMTGKQGYSANLTAHQIINQIHSLPERDKLTNVVMMGMGEPLDNLEEVLKALDILTGSYGYAWSPKRITVSTVGLRKGLRRFIEESDCHLAISLHSPVTAQRAELMPAEKAFSITEMVELLKNYDFSKQRRLSFEYIVFKGLNDSQVYAKELLKLLRGLDCRMNLIRFHSIPGVALEGADMDTMTRFRDYLTTHGLFTTIRASRGEDIFAACGMLSTAKQEENNKS,not soluble
9,MNDTKITGGDLYDLWRVANINMPNVQAVYADACNVIHEINVANEDKFGRAHPGWAALGQIYEQCLFLTEGSLFSVAHYIDKAVKEFKEVDAEAARDLEAIFKNPNDHNPDDELTGDEKPKDVEVPNWWND,not soluble
10,LKRLFFTVSLAVVLSACQALPLNQSQAIVHDEYVSSGDLLPIEAITTIDGEELDLQQLGKRKLVILFATWCHDSNRLLKALNSSPLLEMEGIEIVAIAREEDLETVTAWRDKRGIKVALAVDNDRSIYRRFASGGIPRLITIGENNKIIKMNLAEGEQQLAKIV,not soluble
11,GESLFKGPRDYNPISSTICHLTNESDGHTTSLYGIGFGPFIITNKHLFRRNNGTLLVQSLHGVFKVKNTTTLQQHLIDGRDMIIIRMPKDFPPFPQKLKFREPQREERICLVTTNFQTKSMSSMVSDTSCTFPSSDGIFWKHWIQTKDGQAGSPLVSTRDGFIVGIHSASNFTNTNNYFTSVPKNFMELLTNQEAQQWVSGWRLNADSVLWGGHKVFMSKPEEPFQPVKEATQLMNELVYSQ,soluble
12,MTMHREPGGERYYYTWAWFEGPDDAAWRVTGHHTDSGEQYRLDWNLAERSLCVTDSLGRTRCHWWDAQGLVTAYRDEAGQMTTFRWSDEERLLLGMTDAQGGKWRYVYDRLGHLTETHDPLGRVEQTQWHPVWHQPETEVDAAGAAWRYEYDERGNLQAVSDPLHQRTVYGYDRHGQVVRITDARGGDKYLQWNEDGQLMRHTDCSGSQTAWFYDERTRLERVTDAESNSTRYSYDGNGHLTEVMFADGRTERYQPDAAGRLVKYTSPAGQITRWQRDGQGRVRRQTDATGRRTAYEYDAYGRLTTLTNENGESYRFRYDVLDRLTEQTDPGGSRRAYGYNALNAVTAVIYGGERGGEIRHGLERDAAGRLTAKTTPETRTEYRYDAADRLLEIRRRRHDAAEGGEPEVIRFSYDSAGNLLSEETAQGVLQHRYDVQGNRTETQMPDGRTLRYLYYGSGHLQQINLGRDVISEFTRDHLHREVQRSQGRLDTRRMYDRTGRLTRKPTCKGMRGVVPETFIDREYAYSGQDELLKKRHSRQGVTDYFYDTTGRITACRNEAYLDSWQYDAAANLLDRRQGETAQAGAGSVVPFNRITSYRGLHYRYDEYGRVVEKRGRNGTQHYRWDAEHRLTEVAVIRGSTVRRYGYVYDAPGRRVEKHELDAEGKPYNRTTFLWDGMRLAQECRLGRSSSLYIYSDQGSHEPLARVDRAAPGEADEVLYYHTDVNGAPEEMTDGRGNIVWEAGYQVWGNLTHEKETRPVQQNLRFQGQYLDRETGLHYNLYRFYDPDIGKFISGDPISIRGGINLYQYAPNPIKWIDPLGLYNGEGQRELGKYHVFHEHNLDITEYGLSDAEHFSRGNQAIYERMKNDPAFRREMQTKYPGVVEHVQPSSGGKFSTESPPGLTWHHENKPGVLSLVDRLDHKTYHKIYHPLEHHHHHH,soluble
13,MSVFMDLNIINSSDKNRLKHIIETAAHLGYSTVAINYVVEPLQKKQEIPNPQSISDLFDKFPVVQGKSSPIKVLNRLTIVASDASHFRPTNEYKKFDLVAVYPKTEKLFHAACMTFDVDIICIAVTEKQPFHFKRAPVNGAIDRGIFFETCYAAAIRDSITRRYTIANAICLMEICKGKNVIVSSGAERQLELRGPYDIANLGLVFSLSEGDAKAAVSTNCRSVLLHGETRATASGVIHTMKKPQILQKEEEETPAAKKARTELA,soluble
14,MTENEDLVAGLLLAAGGGRRLGGRPKALLEHRGRPLVEHVAGVLRAAGSTRVYVVLGAQAAAVRERAVLPGCILVDNPDWELGMGTSLRAGLEAMHGTGVRAALVSLVDQPGIGPAAVARVRAAYTSPSTLASAAYDGVRGHPVLFGAAHWAAVAASATGDRGARAYLKAHESAITLVECGDVAEAYDIDTVADLVHLELEHHHHHH,not soluble
